Laboratory results from a protein production outcome set (Wang et al. 2014).

Assay: label from the status in PepcDB records

Sequence	protein production
MKINLDRTSSGFCIGVQGTIHVAEEKLAQSGELYCLGDVVHNEVEVKRLEALGMETIDIPAFEELRNAEVLIRAHGEPPSTYETARKNNLAITDTTCPVVAKLQRTAKMLHQLGYQVVIYGKKVHPEVIGINGQCDDEGVVIKHPDLSDPEEIAPLDLSRKTALISQTTMDVPGFYELKRNLEKLFAEHGHRNPGTQSGEWMAVRDIDITAEKTGALAMPKLVFKDTICRQVSSRNGKLRDFALANDCIVFAAGRKSSNGQVLYSICKDANPHSYFIEDVDEIRPEWFVGENGKPVESVGICGATSTPMWLLEKVANYIDKTFGDGSSNPNA	failed
MKYKAAIFDMDGTILDTSADLTSALNYAFEQTGHRHDFTVEDIKNFFGSGVVVAVTRALAYEAGSSRESLVAFGTKDEQIPEAVTQTEVNRVLEVFKPYYADHCQIKTGPFPGILDLMKNLRQKGVKLAVVSNKPNEAVQVLVEELFPGSFDFALGEKSGIRRKPAPDMTSECVKVLGVPRDKCVYIGDSEIDIQTARNSEMDEIAVNWGFRSVPFLQKHGATVIVDTAEKLEEAILGE	not failed
MDLKEIVQAGAFDLHIHTTASDGEYSPTAIVKKAKEIGLRTIAITDHDTLDGIEEAVIAGKRHGINVIPAIELTTKYKGTNVDILGYNVKASEKLQAILVQLKKHREGRAMQIIEKFNDIGFTITLDEVKQFSEDGVIARPHIAKAIVKKGYVLDYQTVFDEYLADGKPCAIDKMILTPEEGIKLIHEAGGKAILAHPVYLEDTLVRELLALDFDGIEVWHRNHDETDQEKYKMLATEFALIKTGGSDFHTDEHSLGQFGWKADEE	failed
MTRAQPEPVQVVKQRRDAALRALVSGVPYITYLGIQFDRRGDELTAVLPFDEKLIGNPMLPAIHGGVTAAFLEVASIIELSWSVLWHEMEQGRLDPDQIEARLPRLPKTIDFTVDYLRSGLPRDAYARARVNRSGRRYASVHVEAWQDNRLRPFAQATGHFLMPARNDLEHHHHHH	not failed
MSLNHHPIIYLVDHQKDARAALSKLLSPLDVTIQCFASAESFMRQQISDDAIGMIIEAHLEDKKDSGIELLETLVKRGFHLPTIVMASSSDIPTAVRAMRASAADFIEKPFIEHVLVHDVQQIINGAKEGHHHHHH	not failed
MRRRDARPQGTGTAGPTGARHGEDADGTPRHMNAPKGLPLWLKIVTGVVSVALVAGVAFAAFWFIRLQTNITKAPLSAGETRNAGDPLVDDKTDRLQILILGSDTRDGKNAEYGSTEDSTGYGHSDVMMLLDISADNKRVNVLSFPRDLLVDVPQCTDRTNNQTFPARSGVMINEAMAEAGIGCAVDTVNQLTGLEIDHFMMADFNAVKELSHAVGGVNVCVSDPVFDPDSRLRLAKGDSLVEGEQALAFLRTRHAFGDGGDLGRIKGQQAFLSSLTRKLKDEGTLGNPQRLLQIADVVTQNLTVDEGLASVPSLLTIGGRLKDIDVSKVAFVAVPTQAAAADINRLELIEPQASQLFAALRADLDLTTPGATAPPAPSESPAPQPTATTPPAPAYDKAIQPVAVANGSGVATRAQELMTVLTGNGFAQTVSYLANPVDQTVLYYGPGFADVAADVATLFGIPAAQVQEAPGVAGVQLYVGTDFSSGTAYGAASVPSDVVNQTANDAVCQQVNPLYIDQQ	failed
MALLMSVKRQLYLWHRWLGIVACLFMALWFVSGVVMLYVGYPKLTPAERLAHLPALPAGCCAELPEHWAQQPLKALRLTSLGGRAHHLLELADGRRVILDAASGEPLARADAAWALANARQYAGEAGLAYLGTVDEDMWTHSRALDGDRPLHHVQVDDTAGTWLYLSSRTGEVVRDATAQERAWNWVGAWLHWLYPLRGGFGFDNGWRTLVIGLSLGATVMALLGMTVGILRLRLRKRYRSGSCSPYPGGWLRWHHIGGLLFGTVLVLWVFSGLMSMRPWGVTDSRSQLAPQALRQGPLRAMDIGQTVAQAMASLGREPGFNPVEIQWQRLGGDTFLVARNAAGDSRILEAGAPPARALSEQRLLTAARAMAAGVVVQANWQGHYDAYYFTRDAQSMYGFQSRPLPVLRLRFDDPASTWVYLDPASAEVVASHDARQRAGRWLFNLLHSWDLQPLLQRPVLREGLIIALSIGGLVVSLSGVVLGWRRLRRMTARVRG	failed
YRALFEHAIDGIFIMDAEGHYLDVNPAICSAIGYTRDEFLALDWGVLSRGVDSGWAAASLARIVGGEPLREERTVWTRNGDQLTVELSAHLLPDGKILGIARDVS	not failed
